From article PMC8663791 (2021)

Tests used:
Assay in all cases: activation reporter or marker
[1] = target: IGRP 305-324 peptide on HLA-DRB1*04:01 (human)
[2] = target: T1, GAD65 113-132 peptide on HLA-DRB1*04:01 (human)
T1 peptide: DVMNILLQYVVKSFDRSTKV

[3] = target: T2, ZNT8 266-285 peptide on HLA-DRB1*04:01 (human)
T2 peptide: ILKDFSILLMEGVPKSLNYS

[4] = target: IGRP 241-260 peptide on HLA-DRB1*04:01 (human)
[5] = target: GAD65 265-284 peptide on HLA-DRB1*04:01 (human)
[6] = target: T3, GAD65 553-572 peptide on HLA-DRB1*04:01 (human)
T3 peptide: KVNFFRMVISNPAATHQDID

[7] = target: T4, ZNT8 1-20 peptide on HLA-DRB1*04:01 (human)
T4 peptide: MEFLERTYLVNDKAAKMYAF

[8] = target: T5, GAD65 105-124 peptide on HLA-DRB1*04:01 (human)
T5 peptide: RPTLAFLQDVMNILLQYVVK

[9] = target: T6, GAD65 353-372 peptide on HLA-DRB1*04:01 (human)
T6 peptide: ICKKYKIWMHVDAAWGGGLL

B1: Clone_300 (TCR)
alpha TRAV17 TRAJ22 CDR3: CATDSSSGSARQLTF
beta TRBV5-1 TRBJ2-7 CDR3: CASSLVGGRVDWREQYF
binding result [1]: recognises

B2: Clone_262 (TCR)
alpha TRAV12-3 TRAJ29 CDR3: CAMEGGRYNTPLVF
beta TRBV5-6 TRBJ1-1 CDR3: CASSVNRGHNTEAFF
binding result [2]: recognises

B3: Clone_295 (TCR)
alpha TRAV5 TRAJ22 CDR3: CAESTSGSARQLTF
beta TRBV30 TRBJ2-1 CDR3: CAWMGGYNEQFF
binding result [3]: recognises

B4: Clone_839 (TCR)
alpha TRAV17 TRAJ6 CDR3: CATDEGGSYIPTF
beta TRBV11-3 TRBJ2-2 CDR3: CASSFSGELFF
binding result [2]: recognises

B5: Clone_855 (TCR)
alpha TRAV8-2 TRAJ27 CDR3: CVVSVGTNAGKSTF
beta TRBV11-3 TRBJ2-2 CDR3: CASSFSGELFF
binding result [4]: recognises

B6: Clone_896 (TCR)
alpha TRAV12-2 TRAJ15 CDR3: CAVNPNQAGTALIF
beta TRBV6-6 TRBJ1-5 CDR3: CASAPQEAQPQHF
binding result [4]: recognises

B7: Clone_904 (TCR)
alpha TRAV9-2 TRAJ52 CDR3: CALSDYSGTSYGKLTF
beta TRBV11-2 TRBJ2-1 CDR3: CASSLIPYNEQFF
binding result [2]: recognises

B8: Clone_2356 (TCR)
alpha TRAV25 TRAJ36 CDR3: CAGQTGANNLFF
beta TRBV4-3 TRBJ1-5 CDR3: CASSQEVGTVPNQPQHF
binding result [1]: recognises

B9: Clone_2353 (TCR)
alpha TRAV26-2 TRAJ48 CDR3: CILRDTISNFGNEKLTF
beta TRBV7-9 TRBJ1-2 CDR3: CASSFGSSYYGYTF
binding result [1]: recognises

B10: Clone_2062 (TCR)
alpha TRAV20 TRAJ39 CDR3: CAVQAGNAGNMLTF
beta TRBV7-6 TRBJ2-2 CDR3: CASASGVVGELFF
binding result [2]: recognises

B11: Clone_478 (TCR)
alpha TRAV3 TRAJ28 CDR3: CAVRDMRGAGSYQLTF
beta TRBV6-5 TRBJ2-7 CDR3: CASSLGTGTGVYEQYF
binding result [5]: recognises

B12: Clone_271 (TCR)
alpha TRAV20 TRAJ39 CDR3: CAVQAGNAGNMLTF
beta TRBV7-6 TRBJ2-2 CDR3: CASSLGVTGELFF
binding result [2]: recognises

B13: Clone_578 (TCR)
alpha TRAV8-3 TRAJ32 CDR3: CAVGAGYGGATNKLIF
beta TRBV12-3 TRBJ2-7 CDR3: CASSFRGGGNPYEQYF
binding result [6]: recognises

B14: Clone_667 (TCR)
alpha TRAV5 TRAJ7 CDR3: CAERLYGNNRLAF
beta TRBV6-1 TRBJ2-7 CDR3: CASTLLWGGDSYEQYF
binding result [2]: recognises

B15: Clone_640 (TCR)
alpha TRAV41 TRAJ49 CDR3: CAAAGNQFYF
beta TRBV12-4 TRBJ2-1 CDR3: CASSFTYNEQFF
binding result [2]: recognises

B16: Clone_1662 (TCR)
alpha TRAV13-1 TRAJ41 CDR3: CAASGANSGYALNF
beta TRBV30 TRBJ2-5 CDR3: CAWSAQGETQYF
binding result [7]: recognises

B17: Clone_1826 (TCR)
alpha TRAV13-2 TRAJ20 CDR3: CAENRSDYKLSF
beta TRBV28 TRBJ2-5 CDR3: CASSSQGQGKETQYF
binding result [7]: recognises

B18: Clone_2073 (TCR)
alpha TRAV8-6 TRAJ57 CDR3: CAVKLQGGSEKLVF
beta TRBV2 TRBJ1-5 CDR3: CASKYNRGEQPQHF
binding result [8]: recognises

B19: Clone_2312 (TCR)
alpha TRAV14DV4 TRAJ15 CDR3: CAMREMNQAGTALIF
beta TRBV6-2 TRBJ1-5 CDR3: CASTKGGTHQPQHF
binding result [9]: recognises

B20: Clone_5 (TCR)
alpha TRAV3 TRAJ13 CDR3: CAVRDSFSGGYQKVTF
beta TRBV12-4 TRBJ2-7 CDR3: CASSPLAGAWSYEQYF
binding result [1]: recognises
